The values below come from PMC11261718.

The target of this experiment is West Nile virus NS5 protein, wild-type, with a C-terminal Flag tag (UniProt P06935). The experiment can be described thus: co-immunoprecipitation (NS5-Flag IP, western blot for NS3-myc). Conditions: parent: 100. In general terms: A western blot detects proteins with antibodies after separation by electrophoresis.

Turning to “West Nile virus NS3 protein, wild-type, with a C-terminal myc tag (from UniProt P06935) R186A”, the percent of parent is 69% (IP with RNase) and 107% (IP without RNase).
